Here are results for 6 molecules from patent publication US20240174727A1, “LONG-ACTING NATRIURETIC PEPTIDES AND USES THEREOF” (Eli Lilly and Company, priority 2022, published 2024).

What all share (assay): cell-based or functional assay
The target of assay [1] is T1, rat NPRA (rat, UniProt P18910 29-1057).
T1 sequence (looked up): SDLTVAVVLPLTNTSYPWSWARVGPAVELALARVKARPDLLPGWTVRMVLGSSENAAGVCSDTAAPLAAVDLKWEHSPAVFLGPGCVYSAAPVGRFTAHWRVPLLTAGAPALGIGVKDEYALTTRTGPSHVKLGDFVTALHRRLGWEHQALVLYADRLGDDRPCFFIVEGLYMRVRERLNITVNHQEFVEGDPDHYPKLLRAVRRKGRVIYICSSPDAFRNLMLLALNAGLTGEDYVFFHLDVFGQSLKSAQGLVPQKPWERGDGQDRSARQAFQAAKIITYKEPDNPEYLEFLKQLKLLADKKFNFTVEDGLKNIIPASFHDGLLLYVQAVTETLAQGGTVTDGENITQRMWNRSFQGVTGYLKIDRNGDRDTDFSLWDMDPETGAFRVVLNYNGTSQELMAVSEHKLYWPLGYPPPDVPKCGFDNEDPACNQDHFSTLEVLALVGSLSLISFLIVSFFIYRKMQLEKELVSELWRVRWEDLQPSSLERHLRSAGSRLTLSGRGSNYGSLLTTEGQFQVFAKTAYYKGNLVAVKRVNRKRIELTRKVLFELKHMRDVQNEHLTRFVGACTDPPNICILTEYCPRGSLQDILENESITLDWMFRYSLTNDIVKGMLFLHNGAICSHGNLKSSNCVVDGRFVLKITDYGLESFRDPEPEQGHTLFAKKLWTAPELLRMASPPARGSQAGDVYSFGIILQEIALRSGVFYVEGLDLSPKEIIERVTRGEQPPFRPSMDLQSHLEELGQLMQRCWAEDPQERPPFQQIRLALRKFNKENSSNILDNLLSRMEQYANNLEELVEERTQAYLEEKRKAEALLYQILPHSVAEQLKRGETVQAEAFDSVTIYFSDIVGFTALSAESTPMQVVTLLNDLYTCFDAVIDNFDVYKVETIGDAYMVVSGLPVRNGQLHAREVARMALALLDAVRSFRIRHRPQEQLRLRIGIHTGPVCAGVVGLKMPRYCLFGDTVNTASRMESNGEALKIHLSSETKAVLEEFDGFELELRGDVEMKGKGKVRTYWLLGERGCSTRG

Assay [2] deals with T2, human NPRA (human, UniProt P16066 33-1061).
T2 sequence (looked up): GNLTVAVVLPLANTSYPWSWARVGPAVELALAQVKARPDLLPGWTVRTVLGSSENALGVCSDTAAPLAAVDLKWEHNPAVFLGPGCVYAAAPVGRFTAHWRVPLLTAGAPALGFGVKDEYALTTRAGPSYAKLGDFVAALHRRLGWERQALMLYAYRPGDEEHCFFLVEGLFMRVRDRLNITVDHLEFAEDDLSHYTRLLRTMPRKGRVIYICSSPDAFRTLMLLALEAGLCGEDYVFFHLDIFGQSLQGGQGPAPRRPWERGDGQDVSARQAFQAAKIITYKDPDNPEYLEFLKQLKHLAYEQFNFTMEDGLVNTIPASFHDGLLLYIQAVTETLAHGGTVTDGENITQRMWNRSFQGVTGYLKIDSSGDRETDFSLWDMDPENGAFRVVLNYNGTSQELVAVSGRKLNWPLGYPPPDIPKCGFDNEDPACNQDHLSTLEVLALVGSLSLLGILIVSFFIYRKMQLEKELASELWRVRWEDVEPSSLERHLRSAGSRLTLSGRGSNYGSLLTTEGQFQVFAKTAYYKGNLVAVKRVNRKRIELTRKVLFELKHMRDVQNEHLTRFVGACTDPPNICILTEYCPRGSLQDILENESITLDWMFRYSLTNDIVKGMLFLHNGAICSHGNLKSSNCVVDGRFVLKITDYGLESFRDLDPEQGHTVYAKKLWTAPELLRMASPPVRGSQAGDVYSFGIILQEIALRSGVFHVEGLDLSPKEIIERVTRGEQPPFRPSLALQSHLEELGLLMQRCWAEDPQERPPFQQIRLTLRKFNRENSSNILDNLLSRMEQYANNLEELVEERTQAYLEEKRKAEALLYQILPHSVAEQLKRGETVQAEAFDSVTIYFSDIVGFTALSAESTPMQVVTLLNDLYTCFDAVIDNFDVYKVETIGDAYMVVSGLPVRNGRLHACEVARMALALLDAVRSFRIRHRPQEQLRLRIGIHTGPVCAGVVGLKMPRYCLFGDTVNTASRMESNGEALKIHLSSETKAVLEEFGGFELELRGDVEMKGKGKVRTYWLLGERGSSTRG

For assay [3], the target named is T3, rat NPRA (rat, UniProt P18910 29-1057).
T3 sequence (looked up): T1 sequence (looked up)
This is another data set of the same source.

Assay [4] deals with T4, human NPRA (human, UniProt P16066 33-1061).
T4 sequence (looked up): T2 sequence (looked up)
The source holds these as a separate data set.

Residue numbers refer to the chain shown, from its start. Numbered stars: 1 amine (or outer) side, 2 acyl side, 3 side chain; on linkers, the order of the positions; unused ones are H or OH. Bridge positions count the residues as written; N and C are the ends. Square brackets hold non-standard residues; d marks the D form. * marks the point of attachment. C20 diacid = O=C(O)CCCCCCCCCCCCCCCCCCC(=O)*; γGlu = O=C(O)[C@H](CCC(=O)[*:2])N[*:1]; 4Pal = N[C@@H](Cc1ccncc1)C(=O)O

B1: Example 16 (peptide)
peptide: {C20 diacid}-[γGlu]EKEKEKGSHRRSSCFHGRIDRIHAQSGLGCNSFRH-NH2
modifications: disulfide 15-31
SMILES: CC[C@H](C)[C@@H]1NC(=O)[C@H](CCCNC(=N)N)NC(=O)[C@H](CC(=O)O)NC(=O)[C@H]([C@@H](C)CC)NC(=O)[C@H](CCCNC(=N)N)NC(=O)CNC(=O)[C@H](Cc2c[nH]cn2)NC(=O)[C@H](Cc2ccccc2)NC(=O)[C@@H](NC(=O)[C@H](CO)NC(=O)[C@H](CO)NC(=O)[C@H](CCCNC(=N)N)NC(=O)[C@H](CCCNC(=N)N)NC(=O)[C@H](Cc2c[nH]cn2)NC(=O)[C@H](CO)NC(=O)CNC(=O)[C@H](CCCCN)NC(=O)[C@H](CCC(=O)O)NC(=O)[C@H](CCCCN)NC(=O)[C@H](CCC(=O)O)NC(=O)[C@H](CCCCN)NC(=O)[C@H](CCC(=O)O)NC(=O)CC[C@H](NC(=O)CCCCCCCCCCCCCCCCCCC(=O)O)C(=O)O)CSSC[C@@H](C(=O)N[C@@H](CC(N)=O)C(=O)N[C@@H](CO)C(=O)N[C@@H](Cc2ccccc2)C(=O)N[C@@H](CCCNC(=N)N)C(=O)N[C@@H](Cc2c[nH]cn2)C(N)=O)NC(=O)CNC(=O)[C@H](CC(C)C)NC(=O)CNC(=O)[C@H](CO)NC(=O)[C@H](CCC(N)=O)NC(=O)[C@H](C)NC(=O)[C@H](Cc2c[nH]cn2)NC1=O
Take B1: in the assay with rat NPRA [1], the “cGMP Assay (EC50, pM) w/BSA” value came out at 480000 pM and the “cGMP Assay (EC50, pM) w/Casein” value was 4070 pM. For the same molecule, in the assay with human NPRA [2], the “cGMP Assay (EC50, pM) w/BSA” value was 54700 pM and the “cGMP Assay (EC50, pM) w/Casein” value was 807 pM.

B2: HOOC-(CH2)18-CO-(γGlu)-EKEKEKGEKPRSS[CFGKRIDRIG-Orn-QSGLGC]PSFRHGSPSSGAPPPS-NH2 (peptide)
peptide: XEKEKEKGEKPRSSCFGKRIDRIGXQSGLGCPSFRHGSPSSGAPPPS
modifications: N-terminus acylated with HOOC-(CH2)18-CO-(γGlu)-; Orn; thioacetal linkage between the two bracketed Cys; C-terminal amide
Regarding B2, the “cGMP Assay (EC50, pM) w/Casein, rNPRA” value with rat NPRA [3] turned out to be 192000 pM.

B3: HOOC-(CH2)18-CO-(γGlu)-EKEKEKG-(AEEA)8-S-4Pal-RRSS[CFGKRIDRIGHYSGLGC]PSFRHGSPSSGAPPPS-NH2 (peptide)
peptide: SXRRSSCFGKRIDRIGHYSGLGCPSFRHGSPSSGAPPPS
modifications: N-terminus acylated with HOOC-(CH2)18-CO-(γGlu)-; (AEEA)8 after EKEKEKG; 4Pal; thioacetal linkage between the two bracketed Cys; C-terminal amide
Turning to B3, in the assay with rat NPRA [3], the “cGMP Assay (EC50, pM) w/BSA, rNPRA” value is 149000 pM and the “cGMP Assay (EC50, pM) w/Casein, rNPRA” value is 3780 pM. In the assay with human NPRA [4], the “cGMP Assay (EC50, pM) w/BSA, hNPRA” value was 3770 pM and the “cGMP Assay (EC50, pM) w/Casein, hNPRA” value came to 646 pM.

B4: HOOC-(CH2)18-CO-(γGlu)-EKEKEKG-(AEEA)6-S-4Pal-βAla-RSS[CFGGRIDRIGHYSGLGC]PSFRHGSPSSGAPPPS-NH2 (peptide)
peptide: B3 peptide with R3X, K10G
modifications: N-terminus acylated with HOOC-(CH2)18-CO-(γGlu)-; (AEEA)6 after EKEKEKG; 4Pal; βAla; thioacetal linkage between the two bracketed Cys; C-terminal amide
Turning to B4, the “cGMP Assay (EC50, pM) w/Casein, hNPRA” value with human NPRA [4] was found to be 1530 pM.

B5: Example 20 (peptide)
peptide: {C20 diacid}-[γGlu]EKEKEKGS[4Pal]RRSSCFGGRIDRIGAQSGLGCPSFR[4Pal]-NH2
modifications: disulfide 15-31
SMILES: CC[C@H](C)[C@@H]1NC(=O)[C@H](CCCNC(=N)N)NC(=O)[C@H](CC(=O)O)NC(=O)[C@H]([C@@H](C)CC)NC(=O)[C@H](CCCNC(=N)N)NC(=O)CNC(=O)CNC(=O)[C@H](Cc2ccccc2)NC(=O)[C@@H](NC(=O)[C@H](CO)NC(=O)[C@H](CO)NC(=O)[C@H](CCCNC(=N)N)NC(=O)[C@H](CCCNC(=N)N)NC(=O)[C@H](Cc2ccncc2)NC(=O)[C@H](CO)NC(=O)CNC(=O)[C@H](CCCCN)NC(=O)[C@H](CCC(=O)O)NC(=O)[C@H](CCCCN)NC(=O)[C@H](CCC(=O)O)NC(=O)[C@H](CCCCN)NC(=O)[C@H](CCC(=O)O)NC(=O)CC[C@H](NC(=O)CCCCCCCCCCCCCCCCCCC(=O)O)C(=O)O)CSSC[C@@H](C(=O)N2CCC[C@H]2C(=O)N[C@@H](CO)C(=O)N[C@@H](Cc2ccccc2)C(=O)N[C@@H](CCCNC(=N)N)C(=O)N[C@@H](Cc2ccncc2)C(N)=O)NC(=O)CNC(=O)[C@H](CC(C)C)NC(=O)CNC(=O)[C@H](CO)NC(=O)[C@H](CCC(N)=O)NC(=O)[C@H](C)NC(=O)CNC1=O
In the case of B5, in the assay with rat NPRA [1], the “cGMP Assay (EC50, pM) w/BSA” value was determined as 104000 pM and the “cGMP Assay (EC50, pM) w/Casein” value came to 1390 pM. In the assay with human NPRA [2], the “cGMP Assay (EC50, pM) w/BSA” value came out at 129000 pM and the “cGMP Assay (EC50, pM) w/Casein” value came to 2900 pM.

B6: Example 18 (peptide)
peptide: {C20 diacid}-[γGlu]EKEKEKGSHRRSSCFGGRIDRIGAQSGLGCPSFRH-NH2
modifications: disulfide 15-31
SMILES: CC[C@H](C)[C@@H]1NC(=O)[C@H](CCCNC(=N)N)NC(=O)[C@H](CC(=O)O)NC(=O)[C@H]([C@@H](C)CC)NC(=O)[C@H](CCCNC(=N)N)NC(=O)CNC(=O)CNC(=O)[C@H](Cc2ccccc2)NC(=O)[C@@H](NC(=O)[C@H](CO)NC(=O)[C@H](CO)NC(=O)[C@H](CCCNC(=N)N)NC(=O)[C@H](CCCNC(=N)N)NC(=O)[C@H](Cc2c[nH]cn2)NC(=O)[C@H](CO)NC(=O)CNC(=O)[C@H](CCCCN)NC(=O)[C@H](CCC(=O)O)NC(=O)[C@H](CCCCN)NC(=O)[C@H](CCC(=O)O)NC(=O)[C@H](CCCCN)NC(=O)[C@H](CCC(=O)O)NC(=O)CC[C@H](NC(=O)CCCCCCCCCCCCCCCCCCC(=O)O)C(=O)O)CSSC[C@@H](C(=O)N2CCC[C@H]2C(=O)N[C@@H](CO)C(=O)N[C@@H](Cc2ccccc2)C(=O)N[C@@H](CCCNC(=N)N)C(=O)N[C@@H](Cc2c[nH]cn2)C(N)=O)NC(=O)CNC(=O)[C@H](CC(C)C)NC(=O)CNC(=O)[C@H](CO)NC(=O)[C@H](CCC(N)=O)NC(=O)[C@H](C)NC(=O)CNC1=O
Turning to B6, the “cGMP Assay (EC50, pM) w/BSA” value with rat NPRA [1] was determined as 43200 pM; in the assay with human NPRA [2], 17100 pM. In addition, the entries for the “cGMP Assay (EC50, pM) w/Casein” value with rat NPRA [1] and with human NPRA [2] were 693 pM and 460 pM, respectively.
